# B1: MEIG1 wild type, two-hybrid fusion from MEIG1/pGBKT7 [mouse] / Parkin co-regulated gene protein (PACRG), two-hybrid fusion from PACRG/pGADT7 [mouse] (parent complex)
# chain 1: MATSDVKPKSISRAKKWSEEIENLYRFQQAGYRDEIEYKQVKQVAMVDRWPETGYVKKLQRRDNTFFYYNKERECEDKEVHKVKVYVY
# chain 2: not shown
# Variants of: B1
# Assay: yeast two-hybrid, α-galactosidase activity; Yeast strain AH109 co-transformed with PACRG/pGADT7 and MEIG1/pGBKT7 plasmids; parent: 64; read off a plot
row,Variant,response
1,chain 1 Y68A,~3.3
2,"chain 1 W50A, chain 1 Y68A",~2.2
3,chain 1 W50A,~12

# Variants of: B1
# Assay: yeast two-hybrid, α-galactosidase activity; Yeast strain AH109 co-transformed with PACRG/pGADT7 and MEIG1/pGBKT7 plasmids; parent: 65; read off a plot
row,Variant,response
1,chain 1 Y68A,~5
2,chain 1 W50A,~10
3,chain 1 F66A,~15
4,chain 1 I36A,~67
5,chain 1 E20R,~72
6,chain 1 R13E,~81
7,chain 1 V87A,~72
8,chain 1 H81A,~85
9,chain 1 K57E,~22
10,chain 1 R62E,~67
11,chain 1 K9E,~72
12,chain 1 Y25A,~58
